Measured values as given in patent publication CN110563849A (ANHUI RUBIOX VISION BIOTECHNOLOGY CO LTD, dated 2019).

Target: T1, PD-1-mFc (人PD-1胞外区加Fc纯化标签) (human, UniProt Q15116 25-170)
T1 construct: extracellular domain;domain: Fc; also called PD-1抗原; PD-1蛋白; not shown: mFc, Fc purification tag (mouse Fc)
Experiment: competition ELISA, PD-1-mFc coated, competitor PDL-1-hFc

T1 sequence (Q15116 25-170): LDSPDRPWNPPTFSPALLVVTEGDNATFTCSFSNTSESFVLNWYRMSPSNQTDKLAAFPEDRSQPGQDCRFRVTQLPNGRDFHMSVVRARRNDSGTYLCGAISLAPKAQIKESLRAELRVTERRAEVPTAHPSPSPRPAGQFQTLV

binding result: binds
B1: 双特异性抗体Vs3P4 (dsFv-VEGF-linker-PD1-H chain结构) (bispecific antibody, human IgG4 S228P, kappa)
heavy: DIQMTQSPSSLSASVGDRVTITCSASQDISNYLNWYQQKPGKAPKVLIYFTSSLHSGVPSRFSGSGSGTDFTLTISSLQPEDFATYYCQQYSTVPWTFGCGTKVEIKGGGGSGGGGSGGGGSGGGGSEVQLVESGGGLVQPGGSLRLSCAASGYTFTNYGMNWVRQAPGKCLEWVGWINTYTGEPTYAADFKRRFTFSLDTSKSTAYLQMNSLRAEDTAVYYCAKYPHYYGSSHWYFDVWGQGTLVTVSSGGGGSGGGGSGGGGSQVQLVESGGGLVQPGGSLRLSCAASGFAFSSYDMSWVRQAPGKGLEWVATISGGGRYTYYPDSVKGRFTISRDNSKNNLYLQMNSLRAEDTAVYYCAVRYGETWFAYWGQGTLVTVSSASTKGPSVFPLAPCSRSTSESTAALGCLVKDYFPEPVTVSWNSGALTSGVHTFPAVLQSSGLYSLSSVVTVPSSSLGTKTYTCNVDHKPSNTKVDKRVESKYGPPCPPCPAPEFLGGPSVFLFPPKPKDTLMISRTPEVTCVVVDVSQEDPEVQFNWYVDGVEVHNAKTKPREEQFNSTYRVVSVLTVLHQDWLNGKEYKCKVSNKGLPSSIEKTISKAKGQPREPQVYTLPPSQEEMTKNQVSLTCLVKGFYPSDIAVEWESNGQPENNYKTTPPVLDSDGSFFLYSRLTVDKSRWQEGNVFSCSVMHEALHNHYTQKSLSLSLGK
light: DIQMTQSPSSLSASVGDRVTITCRASQDINTYLAWFQQKPGKAPKSLIYRANRLVSGVPSRFSGSGSGTDFTLTISSLQPEDMATYYCLQYDEFPLTFGAGTKLELKRTVAAPSVFIFPPSDEQLKSGTASVVCLLNNFYPREAKVQWKVDNALQSGNSQESVTEQDSKDSTYSLSSTLTLSKADYEKHKVYACEVTHQGLSSPVTKSFNRGEC
notes: Expressed in 293F cells; also called 抗VEGF-抗PD1双特异性抗体
